Values belong to the sequence of their own block, whether it stands above or below them.
How the values were obtained:
HLA-A*24:02 [1] = assay: IEDB peptide-MHC binding, purified MHC/competitive/fluorescence; ≥ and ≤ were set here for values at or beyond the usual limits of such assays; conditions: source organism: Bos taurus
HLA-B*35:01 = assay: as above; conditions: source organism: Bos taurus
HLA-C*07:02 = assay: IEDB peptide-MHC binding, purified MHC/direct/fluorescence; filed as Kd, often an IC50 or EC50 that approximates it; ≥ and ≤ were set here for values at or beyond the usual limits of such assays
HLA-A*24:02 [2] = assay: IEDB peptide-MHC binding, purified MHC/competitive/fluorescence; filed as Kd, often an IC50 or EC50 that approximates it; ≥ and ≤ were set here for values at or beyond the usual limits of such assays
HLA-A*32:07 = assay: as above; conditions: source organism: Mycobacterium tuberculosis C
HLA-B*15:42 = assay: as above; conditions: source organism: Mycobacterium tuberculosis C
HLA-B*27:20 = assay: as above; conditions: source organism: Mycobacterium tuberculosis C
HLA-B*45:06 = assay: as above; conditions: source organism: Mycobacterium tuberculosis C
HLA-B*83:01 = assay: as above; conditions: source organism: Mycobacterium tuberculosis C
HLA-A*01:01 [3] = assay: IEDB peptide-MHC binding, purified MHC/direct/fluorescence; filed as Kd, often an IC50 or EC50 that approximates it; ≥ and ≤ were set here for values at or beyond the usual limits of such assays
HLA-A*26:02 [4] = assay: as above; conditions: source organism: Bacillus cereus NVH0597-99
HLA-A*26:03 [5] = assay: as above
HLA-A*69:01 = assay: as above
HLA-B*07:02 = assay: as above
HLA-B*08:02 = assay: as above; conditions: source organism: Bacillus cereus NVH0597-99
HLA-B*08:03 = assay: as above
HLA-B*15:17 [6] = assay: as above
HLA-B*27:05 [7] = assay: as above; conditions: source organism: Bacillus anthracis
HLA-B*40:01 = assay: as above
HLA-B*48:01 [8] = assay: as above
HLA-B*57:01 = assay: as above
HLA-B*58:01 = assay: as above
HLA-A*02:01 [9] = assay: IEDB peptide-MHC binding, purified MHC/competitive/fluorescence; filed as Kd, often an IC50 or EC50 that approximates it; ≥ and ≤ were set here for values at or beyond the usual limits of such assays
HLA-A*11:01 [10] = assay: as above; conditions: source organism: Bacillus anthracis str. A0488
HLA-A*30:01 = assay: as above
HLA-A*31:01 [11] = assay: as above; conditions: source organism: Bacillus anthracis str. A0488
HLA-A*68:02 [12] = assay: as above
HLA-A*03:01 = assay: IEDB peptide-MHC binding, purified MHC/direct/fluorescence; filed as Kd, often an IC50 or EC50 that approximates it; ≥ and ≤ were set here for values at or beyond the usual limits of such assays; conditions: source organism: Camelpox virus M-96
HLA-A*11:01 [13] = assay: as above; conditions: source organism: Camelpox virus M-96
HLA-A*31:01 [14] = assay: as above; conditions: source organism: Camelpox virus M-96
HLA-B*46:01 = assay: as above
HLA-A*02:06 = assay: IEDB peptide-MHC binding, purified MHC/competitive/fluorescence; filed as Kd, often an IC50 or EC50 that approximates it; ≥ and ≤ were set here for values at or beyond the usual limits of such assays; conditions: source organism: Vaccinia virus Copenhagen
HLA-A*26:02 [15] = assay: as above; conditions: source organism: Vaccinia virus Copenhagen
HLA-A*26:03 [16] = assay: as above; conditions: source organism: Vaccinia virus Copenhagen
HLA-B*08:01 = assay: as above; conditions: source organism: Vaccinia virus Copenhagen
HLA-B*15:01 [17] = assay: as above; conditions: source organism: Vaccinia virus Copenhagen
HLA-B*15:17 [18] = assay: as above; conditions: source organism: Vaccinia virus Copenhagen
HLA-B*18:01 = assay: as above; conditions: source organism: Vaccinia virus Copenhagen
HLA-A*02:01 [19] = assay: IEDB peptide-MHC binding, purified MHC/direct/fluorescence; filed as Kd, often an IC50 or EC50 that approximates it; ≥ and ≤ were set here for values at or beyond the usual limits of such assays; conditions: source organism: Cowpox virus
HLA-A*68:02 [20] = assay: as above; conditions: source organism: Cowpox virus
HLA-B*15:01 [21] = assay: as above; conditions: source organism: Cowpox virus
HLA-B*15:09 = assay: as above; conditions: source organism: Variola virus
HLA-B*38:01 = assay: as above; conditions: source organism: Variola virus
HLA-B*39:01 = assay: as above; conditions: source organism: Cowpox virus
HLA-A*01:01 [22] = assay: IEDB peptide-MHC binding, purified MHC/competitive/fluorescence; filed as Kd, often an IC50 or EC50 that approximates it; ≥ and ≤ were set here for values at or beyond the usual limits of such assays; conditions: source organism: Vaccinia virus Copenhagen
HLA-B*27:05 [23] = assay: as above; conditions: source organism: Vaccinia virus Copenhagen
HLA-B*48:01 [24] = assay: as above; conditions: source organism: Vaccinia virus Copenhagen
[25] = source organism: West Nile virus
[26] = source organism: Bacillus anthracis
[27] = source organism: Bacillus cereus NVH0597-99
[28] = source organism: Bacillus anthracis str. A0488
[29] = source organism: Camelpox virus M-96
[30] = source organism: Vaccinia virus Copenhagen

IC50 (HLA-A*24:02 [1]): 1.06 µM
IC50 (HLA-B*35:01): ≥ 20 µM
Sequence: YMMDDLEL

Sequence: SYHDRRWCF
Kd (HLA-C*07:02; [25]): 0.017 µM
Kd (HLA-A*24:02 [2]; [25]): 0.0101 µM

Sequence: RARRHLAAL
Kd (HLA-C*07:02; source organism: Mycobacterium tuberculosis C): 1.34 µM
Kd (HLA-A*32:07): 0.114 µM
Kd (HLA-B*15:42): ≥ 5 µM
Kd (HLA-B*27:20): 0.0074 µM
Kd (HLA-B*45:06): ≥ 5 µM
Kd (HLA-B*83:01): 5 µM

Sequence: REFEAQNVP
Kd (HLA-A*01:01 [3]; [26]): ≥ 20 µM
Kd (HLA-A*26:02 [4]): ≥ 20 µM
Kd (HLA-A*26:03 [5]; [27]): ≥ 20 µM
Kd (HLA-A*69:01; [26]): ≥ 20 µM
Kd (HLA-B*07:02; [26]): ≥ 20 µM
Kd (HLA-B*08:02): ≥ 20 µM
Kd (HLA-B*08:03; [27]): ≥ 20 µM
Kd (HLA-B*15:17 [6]; [26]): ≥ 20 µM
Kd (HLA-B*27:05 [7]): ≥ 20 µM
Kd (HLA-B*40:01; [26]): 0.294 µM
Kd (HLA-B*48:01 [8]; [26]): ≥ 20 µM
Kd (HLA-B*57:01; [26]): ≥ 20 µM
Kd (HLA-B*58:01; [26]): ≥ 20 µM
Kd (HLA-A*02:01 [9]; [28]): 0.145 µM
Kd (HLA-A*11:01 [10]): 0.497 µM
Kd (HLA-A*30:01; [28]): 0.521 µM
Kd (HLA-A*31:01 [11]): ≥ 20 µM
Kd (HLA-A*68:02 [12]; [28]): 2.19 µM

Sequence: WYAPVALLF
Kd (HLA-A*24:02 [2]; [28]): ≤ 0.0001 µM

Sequence: ALYSYASAK
Kd (HLA-A*01:01 [3]; [29]): ≥ 20 µM
Kd (HLA-A*03:01): 0.0395 µM
Kd (HLA-A*11:01 [13]): 0.0117 µM
Kd (HLA-A*31:01 [14]): 0.106 µM
Kd (HLA-A*69:01; [29]): ≥ 20 µM
Kd (HLA-B*07:02; [29]): ≥ 20 µM
Kd (HLA-B*40:01; [29]): ≥ 20 µM
Kd (HLA-B*46:01; [29]): ≥ 20 µM
Kd (HLA-B*48:01 [8]; [29]): ≥ 20 µM
Kd (HLA-B*57:01; [29]): ≥ 20 µM
Kd (HLA-B*58:01; [29]): ≥ 20 µM
Kd (HLA-A*02:01 [9]; [30]): 0.0563 µM
Kd (HLA-A*02:06): 0.271 µM
Kd (HLA-A*26:02 [15]): ≥ 20 µM
Kd (HLA-A*26:03 [16]): 0.494 µM
Kd (HLA-A*68:02 [12]; [30]): ≥ 20 µM
Kd (HLA-B*08:01): ≥ 20 µM
Kd (HLA-B*15:01 [17]): ≥ 20 µM
Kd (HLA-B*15:17 [18]): ≥ 20 µM
Kd (HLA-B*18:01): ≥ 20 µM

Sequence: RHDITGFIL
Kd (HLA-A*02:01 [19]): ≥ 20 µM
Kd (HLA-A*26:03 [5]; source organism: Variola virus): ≥ 20 µM
Kd (HLA-A*68:02 [20]): ≥ 20 µM
Kd (HLA-A*69:01; source organism: Cowpox virus): ≥ 20 µM
Kd (HLA-B*07:02; source organism: Cowpox virus): ≥ 20 µM
Kd (HLA-B*08:03; source organism: Variola virus): ≥ 20 µM
Kd (HLA-B*15:01 [21]): ≥ 20 µM
Kd (HLA-B*15:09): 2.78 µM
Kd (HLA-B*15:17 [6]; source organism: Cowpox virus): ≥ 20 µM
Kd (HLA-B*38:01): 0.033 µM
Kd (HLA-B*39:01): 0.0235 µM
Kd (HLA-B*40:01; source organism: Cowpox virus): 0.513 µM
Kd (HLA-B*46:01; source organism: Cowpox virus): ≥ 20 µM
Kd (HLA-B*57:01; source organism: Cowpox virus): ≥ 20 µM
Kd (HLA-B*58:01; source organism: Cowpox virus): ≥ 20 µM
Kd (HLA-A*01:01 [22]): ≥ 20 µM
Kd (HLA-A*30:01; [30]): ≥ 20 µM
Kd (HLA-B*18:01): ≥ 20 µM
Kd (HLA-B*27:05 [23]): ≥ 20 µM
Kd (HLA-B*48:01 [24]): 0.298 µM

— the Immune Epitope Database (IEDB)
